Reference: patent publication US20190037818

Legend:
Experiment in all cases: cell_activity
Details in all cases: Cel-1 assay; activity of the TALEN pair
XTN TALEN 2 left monomer = test system: XTN TALEN 2 left monomer
XTN TALEN 3 left monomer = test system: XTN TALEN 3 left monomer
XTN TALEN 1 left monomer = test system: XTN TALEN 1 left monomer
[1] = test system: XTN TALEN 2 right monomer
[2] = test system: XTN TALEN 3 right monomer
[3] = test system: XTN TALEN 1 right monomer

Sequence: TGCAGTATGCGGACCTTTATCTATGGCTGGAATTTCCTAAGTGCAGGGA (double strand) [TALEN 2 target, left half-site]
- activity (XTN TALEN 2 left monomer): 9%

Sequence: TCTGCCAACCTCACATACAGTATGTGGTTTAGTCATTGAGCAAATGCA (double strand) [TALEN 3 target, left half-site]
- activity (XTN TALEN 3 left monomer): 3%

Sequence: TATGCGGACCTTTATCTATGGCTGGAATTTCCTAAGTGCAGGGAGCCACA (double strand) [TALEN 1 target, left half-site]
- activity (XTN TALEN 1 left monomer): 5%

Sequence: TGCAGTATGCGGACCTTTATCTATGGCTGGAATTTCCTAAGTGCAGGGA (double strand) [TALEN 2 target, right half-site]
- activity [1]: 9%

Sequence: TCTGCCAACCTCACATACAGTATGTGGTTTAGTCATTGAGCAAATGCA (double strand) [TALEN 3 target, right half-site]
- activity [2]: 3%

Sequence: TATGCGGACCTTTATCTATGGCTGGAATTTCCTAAGTGCAGGGAGCCACA (double strand) [TALEN 1 target, right half-site]
- activity [3]: 5%
